Where no end group is shown, it is not given here.
T1: native human ESRRG protein (Estrogen-receptor related receptor gamma) (human, UniProt P62508 229-458, limits assumed)
T1 construct: the screened protein is called 'native human ESRRG protein'; also called ESSRG; ERRγ
T1 sequence (looked up): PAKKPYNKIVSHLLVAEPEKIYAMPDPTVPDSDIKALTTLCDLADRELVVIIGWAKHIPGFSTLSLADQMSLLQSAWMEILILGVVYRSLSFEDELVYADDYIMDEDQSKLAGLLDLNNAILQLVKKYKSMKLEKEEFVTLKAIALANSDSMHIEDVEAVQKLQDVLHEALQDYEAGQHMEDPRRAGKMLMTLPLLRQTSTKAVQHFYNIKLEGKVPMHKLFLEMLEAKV


target: T1, native human ESRRG protein …; assay: peptide microarray, Iteration 1; bound ESRRG detected with fluorescent anti-ESRRG mAb
Method: (§1) Screening was carried out typically by hybridization of the protein (1 μg/mL) against the array for 1 h at 4° C.; detection of bound protein was carried out using a fluorescently labeled anti-ESRRG mAb. (Direct labeling of ESRRG and alternative detection strategies are equally valid).
Daughter candidate ligands and their new Tier 3 and/or Tier 1 based combinations were synthesized in situ on an addressable peptide microarray and screened against native human ESRRG protein in order to determine sequences that bind to this protein. Bound protein was detected by a fluorescently labeled anti-ESRRG mAb. […] Excess (100×) competing biological matrices (human serum, HSA/BSA or bacterial protein extract) were used as backgrounds to select for specific ligands to the protein. Other competing proteins can be added to background for specificity selection and directed evolution of ligands.

Row | Binder | Sample B (Probe) Signal | log2 (Sample B/Sample A)
1 | Ac-AANMLLLL | 1190 fluorescence intensity units | 5.52
2 | Ac-AANYVLLL | 2200 fluorescence intensity units | 7.22
3 | Ac-NSLSWHLL | 1040 fluorescence intensity units | 5.34
4 | Ac-LLHLQKSQ | 745 fluorescence intensity units | 5.64
5 | Ac-ANNSLLLH | 1320 fluorescence intensity units | 6.51
6 | Ac-ANNVSLLH | 1820 fluorescence intensity units | 4.87
7 | Ac-ANNSKLLH | 1010 fluorescence intensity units | 5.42
8 | Ac-ANNLWLLH | 1610 fluorescence intensity units | 5.26
9 | Ac-ANNLQLLH | 1540 fluorescence intensity units | 5.03
10 | Ac-ANNIQLLH | 806 fluorescence intensity units | 8.57
11 | Ac-ANNIWLLH | 1010 fluorescence intensity units | 5.05
12 | Ac-ANNSQLLH | 955 fluorescence intensity units | 9.9
13 | Ac-ANNILLLH | 1090 fluorescence intensity units | 6.34
14 | Ac-ANNSSLLH | 1150 fluorescence intensity units | 7.29
15 | Ac-ANNSWLLH | 1260 fluorescence intensity units | 5.97
16 | Ac-LHLRYSQT | 961 fluorescence intensity units | 4.86
17 | Ac-AIRGHLMG | 935 fluorescence intensity units | 5.63
18 | Ac-AIRVHLMG | 690 fluorescence intensity units | 5.87
19 | Ac-NNSWSLHL | 729 fluorescence intensity units | 4.95
20 | Ac-NSLLQHLL | 9740 fluorescence intensity units | 12

The remaining lines, values ahead:

Row | Sample B (Probe) Signal | log2 (Sample B/Sample A) | Binder
21 | 740 fluorescence intensity units | 4.97 | Ac-IKQNYNNS
22 | 3440 fluorescence intensity units | 6.78 | Ac-AANNYLLL
23 | 2010 fluorescence intensity units | 7.19 | Ac-AANYILLL
24 | 3760 fluorescence intensity units | 7.4 | Ac-AANYLLLL
25 | 4010 fluorescence intensity units | 5.95 | Ac-AANMYLLL
26 | 1220 fluorescence intensity units | 6.16 | Ac-AANMSLLL
27 | 863 fluorescence intensity units | 6.58 | Ac-NIKVHANN
28 | 1220 fluorescence intensity units | 5.82 | Ac-ANNLSLLH
29 | 1620 fluorescence intensity units | 5.13 | Ac-ANNFLLLH
30 | 2000 fluorescence intensity units | 4.92 | Ac-ANNVLLLH
31 | 1670 fluorescence intensity units | 4.88 | Ac-ANNLKLLH
32 | 1720 fluorescence intensity units | 5.04 | Ac-ANNVKLLH
33 | 3240 fluorescence intensity units | 6.08 | Ac-NSLRQHLL
34 | 1670 fluorescence intensity units | 6.34 | Ac-NSLRSHLL
35 | 7390 fluorescence intensity units | 6.38 | Ac-KSLLQQLL
36 | 622 fluorescence intensity units | 6.48 | Ac-LHLKGSQT

target: T1, native human ESRRG protein …; assay: peptide microarray, Iteration 2; bound ESRRG detected with fluorescent anti-ESRRG mAb
Method: as §1
Iterative sequence expansion and arraying of 10 highest binding ligands to ESRRG from Iteration 1 was carried out and the new peptide sequences were synthesized on an array and screened against the protein, as described above. In this step, the central 2 amino acids (core) in peptide sequences were maintained unchanged while outlying amino acids (2, 3, 6, and 7) were permuted (using Tier 1 and Tier 3 substitutions) in a ‘cipher’ or ‘combination’ lock approach.

Row | Binder | Sample B (Probe) Signal | log2 (Sample B/Sample A)
37 | Ac-EESYPRDK | 554 fluorescence intensity units | 2.19
38 | Ac-AFNMYLDE | 440 fluorescence intensity units | 1.93
39 | Ac-RLLHYGSY | 1200 fluorescence intensity units | 2.05
40 | Ac-IFLLQQDN | 1010 fluorescence intensity units | 2.08
41 | Ac-DRSYPRHT | 271 fluorescence intensity units | 1.98
42 | Ac-MYKLKQDN | 746 fluorescence intensity units | 2.02

Other lines, results leading:

Row | Sample B (Probe) Signal | log2 (Sample B/Sample A) | Binder
43 | 794 fluorescence intensity units | 1.97 | Ac-YFLLQQGP
44 | 1660 fluorescence intensity units | 1.9 | Ac-RRSYPRGR
45 | 662 fluorescence intensity units | 2.12 | Ac-ALNFSLNW
46 | 6980 fluorescence intensity units | 2.2 | Ac-PFKLKQGN
47 | 2610 fluorescence intensity units | 2.07 | Ac-WRSYPRRA
48 | 895 fluorescence intensity units | 2.01 | Ac-WLLLKHGL
49 | 441 fluorescence intensity units | 2.03 | Ac-HNNFSLEP
50 | 998 fluorescence intensity units | 1.94 | Ac-PGKGHFPI
51 | 900 fluorescence intensity units | 1.92 | Ac-FVNFSLGI
